Molecular target: biotinylated Aβ oligomers (from bAβ1–42) (UniProt P05067 672-713)
Test: ELISA
Details: both partners purified

B1: wild-type human prion protein (amino acids 23–231), unlabeled (domain or fragment)
chain: not shown
binding result: binds
